Where a chain is given by its changes, count along the chain named. Numbers in names are those of the source.
Tests used:
Conditions in all cases: both partners purified
His-OmpX = target: T1, His-OmpX (Escherichia coli, UniProt P0A917 24-171); assay: other fluorescence titration; intrinsic tryptophan fluorescence of the OMP (0.4 uM) titrated with increasing Spy or Skp; 40 mM HEPES, 150 mM NaCl, 0.24 M urea, pH 7.5; 25 C; excitation 295 nm, emission 305-400 nm
T1 construct: Unfolded: diluted from 8 M urea to 0.24 M urea for the assay; source: E. coli, from pET28b(+)-His-ompX, purified, kept in 8 M urea; not shown: 6xHis, N-terminal, kept
T1 sequence (looked up): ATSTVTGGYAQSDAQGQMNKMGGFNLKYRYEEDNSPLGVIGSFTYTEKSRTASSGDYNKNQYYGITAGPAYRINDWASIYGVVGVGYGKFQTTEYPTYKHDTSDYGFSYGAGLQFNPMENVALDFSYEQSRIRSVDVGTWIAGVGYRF

His-OmpC = target: T2, His-OmpC (Escherichia coli, UniProt P06996 22-367); assay: as above
T2 construct: Unfolded: diluted from 8 M urea to 0.24 M urea for the assay; source: E. coli, from pET28b(+)-His-ompC, purified, kept in 8 M urea; not shown: 6xHis, N-terminal, kept
T2 sequence (looked up): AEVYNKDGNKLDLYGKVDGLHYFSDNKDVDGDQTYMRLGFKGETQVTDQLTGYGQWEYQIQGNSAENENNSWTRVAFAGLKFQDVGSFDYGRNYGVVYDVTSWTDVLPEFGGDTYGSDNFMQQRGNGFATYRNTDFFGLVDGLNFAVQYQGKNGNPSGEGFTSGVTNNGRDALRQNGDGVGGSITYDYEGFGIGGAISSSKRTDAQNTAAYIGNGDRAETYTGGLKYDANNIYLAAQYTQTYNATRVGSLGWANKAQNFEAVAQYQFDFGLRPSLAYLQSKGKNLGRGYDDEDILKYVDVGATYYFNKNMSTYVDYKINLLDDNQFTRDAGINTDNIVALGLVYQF

His-OmpA = target: T3, His-OmpA (Escherichia coli, UniProt P0A910 22-346); assay: as above
T3 construct: Unfolded: diluted from 8 M urea to 0.24 M urea for the assay; source: E. coli, from pET28b(+)-His-ompA, purified, kept in 8 M urea; not shown: 6xHis, N-terminal, kept
T3 sequence (looked up): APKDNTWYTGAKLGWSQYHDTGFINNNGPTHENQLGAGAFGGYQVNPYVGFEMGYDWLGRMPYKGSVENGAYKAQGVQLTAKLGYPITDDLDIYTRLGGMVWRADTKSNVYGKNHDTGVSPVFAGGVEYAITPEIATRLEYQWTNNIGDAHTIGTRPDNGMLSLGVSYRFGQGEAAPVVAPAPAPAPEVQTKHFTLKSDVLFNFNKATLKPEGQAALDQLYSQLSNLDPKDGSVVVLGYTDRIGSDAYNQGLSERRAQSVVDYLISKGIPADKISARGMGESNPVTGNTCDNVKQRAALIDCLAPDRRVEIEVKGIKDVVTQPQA

His-LamB = target: T4, His-LamB (Escherichia coli, UniProt P02943 26-446); assay: as above
T4 construct: Unfolded: diluted from 8 M urea to 0.24 M urea for the assay; source: E. coli, from pET28b(+)-His-lamB, purified, kept in 8 M urea; not shown: 6xHis, N-terminal, kept

untagged OmpX = target: T5, untagged OmpX (Escherichia coli, UniProt P0A917 24-171); assay: NMR spectroscopy of assembled chaperone-OMP complexes; excess urea-denatured OMP added dropwise to the chaperone, supernatant concentrated; 2D [15N,1H]-TROSY or HSQC with one partner [U-2H,15N]-labelled; 25 mM MES, 50 mM NaCl, pH 6.5; 315 K (tOmpA-Spy also at 42, 26 and 15 C)
T5 construct: outer membrane protein OmpX of Escherichia coli; [U-2H,15N]-labelled in the TROSY experiments, unlabelled in the HSQC experiment with labelled Spy; source: E. coli, from pET28b(+)-ompX, purified from the insoluble pellet in 8 M urea (ion exchange)
T5 sequence (looked up): T1 sequence (looked up)

Measured: binding result

T4 sequence (P02943 26-446): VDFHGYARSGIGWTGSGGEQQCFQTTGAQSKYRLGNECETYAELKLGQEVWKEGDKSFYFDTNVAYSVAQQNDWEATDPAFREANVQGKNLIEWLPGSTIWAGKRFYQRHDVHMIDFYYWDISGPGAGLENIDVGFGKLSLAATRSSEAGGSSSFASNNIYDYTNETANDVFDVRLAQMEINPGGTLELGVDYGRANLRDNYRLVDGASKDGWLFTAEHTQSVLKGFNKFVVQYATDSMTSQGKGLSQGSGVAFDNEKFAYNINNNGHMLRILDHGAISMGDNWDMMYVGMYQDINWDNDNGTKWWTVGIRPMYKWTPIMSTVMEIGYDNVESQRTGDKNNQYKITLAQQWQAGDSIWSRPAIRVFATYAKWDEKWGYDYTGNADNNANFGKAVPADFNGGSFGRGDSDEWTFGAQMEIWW

B1: periplasmic chaperone Spy (natural protein, Escherichia coli, UniProt P77754 24-161, looked up)
chain: ADTTTAAPADAKPMMHHKGKFGPHQDMMFKDLNLTDAQKQQIREIMKGQRDQMKRPPLEERRAMHDIIASDTFDKVKAEAQIAKMEEQRKANMLAHMETQNKIYNILTPEQKKQFNANFEKRLTERPAAKGKMPATAE
notes: Spy, periplasmic chaperone of Escherichia coli; [U-2H,15N]-labelled in the HSQC experiment with unlabelled OmpX, unlabelled elsewhere; also called wild-type Spy; WT Spy; source: E. coli, from pET28b(+)-HisSUMO-spy, purified (6xHis-SUMO tag removed, cation exchange)
binds: His-OmpX | His-OmpC | His-OmpA | His-LamB | untagged OmpX

B2: Spy^Q100L (natural protein, Escherichia coli, UniProt P77754 24-161, looked up)
chain: B1 chain with Q100L
notes: Spy of Escherichia coli with Q100L; also called Q100L variant; source: E. coli, from pET28b(+)-HisSUMO-spy-Q100L, purified
binds: untagged OmpX

B3: seventeen-kilodalton protein (Skp) (natural protein, Escherichia coli, UniProt P0AEU7 21-161, looked up)
chain: ADKIAIVNMGSLFQQVAQKTGVSNTLENEFKGRASELQRMETDLQAKMKKLQSMKAGSDRTKLEKDVMAQRQTFAQKAQAFEQDRARRSNEERGKLVTRIQTAVKSVANSQDIDLVVDANAVAYNSSDVKDITADVLKQVK
notes: Skp, periplasmic chaperone of Escherichia coli; source: E. coli, from pET28b(+)-HisSUMO-skp, purified (6xHis-SUMO tag removed, cation exchange)
binds: His-OmpX | His-OmpC | His-OmpA | His-LamB

— publication PMC8546600, “Chaperone Spy Protects Outer Membrane Proteins from Folding Stress via Dynamic Complex Formation” (mBio, 2021)
